# Experimental data published in article PMC4972253.
# Columns and labels:
# [1] = biological target: VRC01 (human); assay: BLI
# [2] = biological target: BG505 NFL trimer (Wt, unfixed) (HIV-1, subtype A, strain BG505); assay: native gel or EMSA
# [3] = biological target: JRFL NFL trimer (Wt, unfixed) (HIV-1, subtype B, strain JRFL); assay: native gel or EMSA
# Sequence of VRC01 (human) (light, as listed by the source, chain 2 of 2, other chains not shown): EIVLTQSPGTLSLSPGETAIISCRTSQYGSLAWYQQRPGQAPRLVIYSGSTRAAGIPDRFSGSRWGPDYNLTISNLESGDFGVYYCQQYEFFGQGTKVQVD
Substance,relative binding (% of the day 0 response) after 7 days at 37°C in PBS [1] [%],stoichiometry N [2],stoichiometry N [3]
"BG505 NFL trimer (Wt, unfixed) (domain or fragment)",90,3,
"JRFL NFL trimer (Wt, unfixed) (domain or fragment)",,,3
